Experimental data as given in article PMC5807507, “Crystal structures of a bacterial dipeptidyl peptidase IV reveal a novel substrate recognition mechanism distinct from that of mammalian orthologues” (Scientific Reports, 2018).

B1: Human DPP IV (Homo sapiens) (protein)
chain: SRKTYTLTDYLKNTYRLKLYSLRWISDHEYLYKQENNILVFNAEYGNSSVFLENSTFDEFGHSINDYSISPDGQFILLEYNYVKQWRHSYTASYDIYDLNKRQLITEERIPNNTQWVTWSPVGHKLAYVWNNDIYVKIEPNLPSYRITWTGKEDIIYNGITDWVYEEEVFSAYSALWWSPNGTFLAYAQFNDTEVPLIEYSFYSDESLQYPKTVRVPYPKAGAVNPTVKFFVVNTDSLSSVTNATSIQITAPASMLIGDHYLCDVTWATQERISLQWLRRIQNYSVMDICDYDESSGRWNCLVARQHIEMSTTGWVGRFRPSEPHFTLDGNSFYKIISNEEGYRHICYFQIDKKDCTFITKGTWEVIGIEALTSDYLYYISNEYKGMPGGRNLYKIQLSDYTKVTCLSCELNPERCQYYSVSFSKEAKYYQLRCSGPGLPLYTLHSSVNDKGLRVLEDNSALDKMLQNVQMPSKKLDFIILNETKFWYQMILPPHFDKSKKYPLLLDVYAGPCSQKADTVFRLNWATYLASTENIIVASFDGRGSGYQGDKIMHAINRRLGTFEVEDQIEAARQFSKMGFVDNKRIAIWGWSYGGYVTSMVLGSGSGVFKCGIAVAPVSRWEYYDSVYTERYMGLPTPEDNLDHYRNSTVMSRAENFKQVEYLLIHGTADDNVHFQQSAQISKALVDVGVDFQAMWYTDEDHGIASSTAHQHIYTHMSHFIKQCFSLP
notes: homodimer
B2: PmDAP IV (Pseudoxanthomonas mexicana) (protein)
chain: AEKLTLEAITGSAPLSGPTLTKPQIAPDGSRVTFLRGKDRDRNRLDLWEYDIASGQTRLLVDSSVVLPGEEVLSDEEKARRERQRIAALSGIVDYQWSPDGKALLFPLGGELYFYDLTKSGRDAVRKLTNGGGFATDPKISPKGGFVSFIRDRNLWAIDLASGKEVQLTRDGSDTIGNGVAEFVADEEMDRHTGYWWAPDDAAIAFARIDETPVPVQKRYEVYPDRTEVVEQRYPAAGDHNVRVQLGVIAPKTGARPRWIDLGKDPDIYLARVDWRDPQRLTFQRQSRDQKKIELIETTLTNGTQRTLVTETSTTWVPLHNDLRFLKDGRFLWSSERSGFEHLYVASEDGSTLTALTQGEWVVDSLLAIDEAAGLAYVSGTRDGATEAHVYAVPLSGGEPRRLTQAPGMHAATFARNASVFVDSWSSDTTLPQIELFKADGTKLATLLVNDVSDATHPYAKYRAAHQPTAYGTLTAADGTTPLHYSLIKPAGFDPKKQYPVVVFVYGGPAAQTVTRAWPGRSDSFFNQYLAQQGYVVFTLDNRGTPRRGAAFGGALYGKQGTVEVDDQLRGIEWLKSQAFVDPARIGVYGWSNGGYMTLMLLAKHDEAYACGVAGAPVTDWALYDTHYTERYMDLPKANEAGYREASVFTHVDGIGAGKLLLIHGMADDNVLFTNSTKLMSELQKRGTPFELMTYPGAKHGLRGSDLLHRYRLTEDFFARCLKP
notes: M12I lies in the removed signal; no tag; 723 residues, 82-kDa; homodimer; crystal model Ala22-Pro745

Key:
[1] = substrate: Cc1cc(=O)oc2cc(NC(=O)[C@@H]3CCCN3C(=O)CN)ccc12; experiment: fluorescence of released MCA; Michaelis-Menten nonlinear fit; assay type: biochemical, Homo sapiens; details: […] substrate, […] sodium phosphate pH […] EDTA, […] Tween […] K, […] min
Excerpt: fluorescence of released MCA; Michaelis-Menten nonlinear fit on Human DPP IV

[2] = substrate: Cc1cc(=O)oc2cc(NC(=O)[C@@H]3CCCN3C(=O)CN)ccc12; experiment: as above; assay type: biochemical, Pseudoxanthomonas mexicana; details: […] substrate, […] sodium phosphate pH […] EDTA, […] Tween […] K, […] min
Excerpt: fluorescence of released MCA; Michaelis-Menten nonlinear fit on PmDAP IV

Protein	Km [1]	kcat [1]	kcat/Km [1]	Km [2]	kcat [2]	kcat/Km [2]
B1	37.1 ± 1.6 µM	35.3 ± 1 s⁻¹	952000 ± 13000 M⁻¹ s⁻¹			
B2				19.4 ± 0.8 µM	19.2 ± 0.4 s⁻¹	989000 ± 35000 M⁻¹ s⁻¹
